Measured values: US20240400696A1

Biological target: CD3
Experiment: Octet, crude lysate

Sequence of CD3 (P07766 23-126): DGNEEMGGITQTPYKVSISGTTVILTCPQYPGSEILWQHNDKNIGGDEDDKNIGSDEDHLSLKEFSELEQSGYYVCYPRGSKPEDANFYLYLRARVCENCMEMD

Binder | Kd [nM]
AC3402 (bispecific antibody, V domains shown) VH: EVQLLESGGGIVQPGGSLKLSCAASGFTFNTYAMNWVRQAPGKGLEWVARIRSKPNNYATYYADSVKDRFTISRDDSKNTVYLQMNNLKTEDTAVYYCVRHENFGNSYVSWFAHWGQGTLVTVSS VL: ELVVTQEPSLTVSPGGTVTLTCRSSNGAVTSSNYANWVQQKPGQAPRGLIGGTNKRAPGTPARFSGSLLGGKAALTLSGVQPEDEAVYYCALWYPNLWVFGGGTKLTVL | 33.1
AC3413 (bispecific antibody, V domains shown) VH: EVQLLESGGGIVQPGGSLKLSCAASGFTFNTYAMNWVRQAPGKGLEWVARIRSKYNNYTTYYADSVKDRFTISRDDSKNTVYLQMNNLKTEDTAVYYCVRHENFGNSYVSWFAHWGQGTLVTVSS VL: ELVVTQEPSLTVSPGGTVTLTCRSSNGAVTSSNYANWVQQKPGQAPRGLIGGTNKRAPGTPARFSGSLLGGKAALTLSGVQPEDEAVYYCALWYPNLWVFGGGTKLTVL | 10.7
AC3408 (bispecific antibody, V domains shown) VH: EVQLLESGGGIVQPGGSLKLSCAASGFTFNTYAMNWVRQAPGKGLEWVARIRSKYNEYATYYADSVKDRFTISRDDSKNTVYLQMNNLKTEDTAVYYCVRHENFGNSYVSWFAHWGQGTLVTVSS VL: ELVVTQEPSLTVSPGGTVTLTCRSSNGAVTSSNYANWVQQKPGQAPRGLIGGTNKRAPGTPARFSGSLLGGKAALTLSGVQPEDEAVYYCALWYPNLWVFGGGTKLTVL | 8.3
AC3403 (bispecific antibody, V domains shown) VH: EVQLLESGGGIVQPGGSLKLSCAASGFTFNTYAMNWVRQAPGKGLEWVARIRSKTNNYATYYADSVKDRFTISRDDSKNTVYLQMNNLKTEDTAVYYCVRHENFGNSYVSWFAHWGQGTLVTVSS VL: ELVVTQEPSLTVSPGGTVTLTCRSSNGAVTSSNYANWVQQKPGQAPRGLIGGTNKRAPGTPARFSGSLLGGKAALTLSGVQPEDEAVYYCALWYPNLWVFGGGTKLTVL | 11.1
AC3407 (bispecific antibody, V domains shown) VH: EVQLLESGGGIVQPGGSLKLSCAASGFTFNTYAMNWVRQAPGKGLEWVARIRSKYNDYATYYADSVKDRFTISRDDSKNTVYLQMNNLKTEDTAVYYCVRHENFGNSYVSWFAHWGQGTLVTVSS VL: ELVVTQEPSLTVSPGGTVTLTCRSSNGAVTSSNYANWVQQKPGQAPRGLIGGTNKRAPGTPARFSGSLLGGKAALTLSGVQPEDEAVYYCALWYPNLWVFGGGTKLTVL | 7.4
AC3406 (bispecific antibody, V domains shown) VH: EVQLLESGGGIVQPGGSLKLSCAASGFTFNTYAMNWVRQAPGKGLEWVARIRSKYENYATYYADSVKDRFTISRDDSKNTVYLQMNNLKTEDTAVYYCVRHENFGNSYVSWFAHWGQGTLVTVSS VL: ELVVTQEPSLTVSPGGTVTLTCRSSNGAVTSSNYANWVQQKPGQAPRGLIGGTNKRAPGTPARFSGSLLGGKAALTLSGVQPEDEAVYYCALWYPNLWVFGGGTKLTVL | 575
AC3414 (bispecific antibody, V domains shown) VH: EVQLLESGGGIVQPGGSLKLSCAASGFTFNTYAMNWVRQAPGKGLEWVARIRSKYNNYATDYADSVKDRFTISRDDSKNTVYLQMNNLKTEDTAVYYCVRHENFGNSYVSWFAHWGQGTLVTVSS VL: ELVVTQEPSLTVSPGGTVTLTCRSSNGAVTSSNYANWVQQKPGQAPRGLIGGTNKRAPGTPARFSGSLLGGKAALTLSGVQPEDEAVYYCALWYPNLWVFGGGTKLTVL | 939
AC3424 (bispecific antibody, V domains shown) VH: EVQLLESGGGIVQPGGSLKLSCAASGFTFNTYAMNWVRQAPGKGLEWVARIRSKYNNYATYYADSVKGRFTISRDDSKNTVYLQMNNLKTEDTAVYYCVRHENFGNSYVSWFAHWGQGTLVTVSS VL: ELVVTQEPSLTVSPGGTVTLTCRSSNGAVTSSNYANWVQQKPGQAPRGLIGGTNKRAPGTPARFSGSLLGGKAALTLSGVQPEDEAVYYCALWYPNLWVFGGGTKLTVL | 5.4
AC3412 (bispecific antibody, V domains shown) VH: EVQLLESGGGIVQPGGSLKLSCAASGFTFNTYAMNWVRQAPGKGLEWVARIRSKYNNYGTYYADSVKDRFTISRDDSKNTVYLQMNNLKTEDTAVYYCVRHENFGNSYVSWFAHWGQGTLVTVSS VL: ELVVTQEPSLTVSPGGTVTLTCRSSNGAVTSSNYANWVQQKPGQAPRGLIGGTNKRAPGTPARFSGSLLGGKAALTLSGVQPEDEAVYYCALWYPNLWVFGGGTKLTVL | 8.2
AC3418 (bispecific antibody, V domains shown) VH: EVQLLESGGGIVQPGGSLKLSCAASGFTFNTYAMNWVRQAPGKGLEWVARIRSKYNNYATYEADSVKDRFTISRDDSKNTVYLQMNNLKTEDTAVYYCVRHENFGNSYVSWFAHWGQGTLVTVSS VL: ELVVTQEPSLTVSPGGTVTLTCRSSNGAVTSSNYANWVQQKPGQAPRGLIGGTNKRAPGTPARFSGSLLGGKAALTLSGVQPEDEAVYYCALWYPNLWVFGGGTKLTVL | 9.7
AC3404 (bispecific antibody, V domains shown) VH: EVQLLESGGGIVQPGGSLKLSCAASGFTFNTYAMNWVRQAPGKGLEWVARIRSKWNNYATYYADSVKDRFTISRDDSKNTVYLQMNNLKTEDTAVYYCVRHENFGNSYVSWFAHWGQGTLVTVSS VL: ELVVTQEPSLTVSPGGTVTLTCRSSNGAVTSSNYANWVQQKPGQAPRGLIGGTNKRAPGTPARFSGSLLGGKAALTLSGVQPEDEAVYYCALWYPNLWVFGGGTKLTVL | 10.5
AC3422 (bispecific antibody, V domains shown) VH: EVQLLESGGGIVQPGGSLKLSCAASGFTFNTYAMNWVRQAPGKGLEWVARIRSKYNNYATYYKDSVKDRFTISRDDSKNTVYLQMNNLKTEDTAVYYCVRHENFGNSYVSWFAHWGQGTLVTVSS VL: ELVVTQEPSLTVSPGGTVTLTCRSSNGAVTSSNYANWVQQKPGQAPRGLIGGTNKRAPGTPARFSGSLLGGKAALTLSGVQPEDEAVYYCALWYPNLWVFGGGTKLTVL | 8
AC3417 (bispecific antibody, V domains shown) VH: EVQLLESGGGIVQPGGSLKLSCAASGFTFNTYAMNWVRQAPGKGLEWVARIRSKYNNYATYDADSVKDRFTISRDDSKNTVYLQMNNLKTEDTAVYYCVRHENFGNSYVSWFAHWGQGTLVTVSS VL: ELVVTQEPSLTVSPGGTVTLTCRSSNGAVTSSNYANWVQQKPGQAPRGLIGGTNKRAPGTPARFSGSLLGGKAALTLSGVQPEDEAVYYCALWYPNLWVFGGGTKLTVL | 63.2
AC3409 (bispecific antibody, V domains shown) VH: EVQLLESGGGIVQPGGSLKLSCAASGFTFNTYAMNWVRQAPGKGLEWVARIRSKYNNGATYYADSVKDRFTISRDDSKNTVYLQMNNLKTEDTAVYYCVRHENFGNSYVSWFAHWGQGTLVTVSS VL: ELVVTQEPSLTVSPGGTVTLTCRSSNGAVTSSNYANWVQQKPGQAPRGLIGGTNKRAPGTPARFSGSLLGGKAALTLSGVQPEDEAVYYCALWYPNLWVFGGGTKLTVL | 11.3

Results, then the binder that gave them:

Kd [nM] | Binder
8.2 | AC3423 (bispecific antibody, V domains shown) VH: EVQLLESGGGIVQPGGSLKLSCAASGFTFNTYAMNWVRQAPGKGLEWVARIRSKYNNYATYYPDSVKDRFTISRDDSKNTVYLQMNNLKTEDTAVYYCVRHENFGNSYVSWFAHWGQGTLVTVSS VL: ELVVTQEPSLTVSPGGTVTLTCRSSNGAVTSSNYANWVQQKPGQAPRGLIGGTNKRAPGTPARFSGSLLGGKAALTLSGVQPEDEAVYYCALWYPNLWVFGGGTKLTVL
7.8 | AC3411 (bispecific antibody, V domains shown) VH: EVQLLESGGGIVQPGGSLKLSCAASGFTFNTYAMNWVRQAPGKGLEWVARIRSKYNNWATYYADSVKDRFTISRDDSKNTVYLQMNNLKTEDTAVYYCVRHENFGNSYVSWFAHWGQGTLVTVSS VL: ELVVTQEPSLTVSPGGTVTLTCRSSNGAVTSSNYANWVQQKPGQAPRGLIGGTNKRAPGTPARFSGSLLGGKAALTLSGVQPEDEAVYYCALWYPNLWVFGGGTKLTVL
183 | AC3415 (bispecific antibody, V domains shown) VH: EVQLLESGGGIVQPGGSLKLSCAASGFTFNTYAMNWVRQAPGKGLEWVARIRSKYNNYATEYADSVKDRFTISRDDSKNTVYLQMNNLKTEDTAVYYCVRHENFGNSYVSWFAHWGQGTLVTVSS VL: ELVVTQEPSLTVSPGGTVTLTCRSSNGAVTSSNYANWVQQKPGQAPRGLIGGTNKRAPGTPARFSGSLLGGKAALTLSGVQPEDEAVYYCALWYPNLWVFGGGTKLTVL
37.2 | AC3421 (bispecific antibody, V domains shown) VH: EVQLLESGGGIVQPGGSLKLSCAASGFTFNTYAMNWVRQAPGKGLEWVARIRSKYNNYATYWADSVKDRFTISRDDSKNTVYLQMNNLKTEDTAVYYCVRHENFGNSYVSWFAHWGQGTLVTVSS VL: ELVVTQEPSLTVSPGGTVTLTCRSSNGAVTSSNYANWVQQKPGQAPRGLIGGTNKRAPGTPARFSGSLLGGKAALTLSGVQPEDEAVYYCALWYPNLWVFGGGTKLTVL
8.3 | AC3420 (bispecific antibody, V domains shown) VH: EVQLLESGGGIVQPGGSLKLSCAASGFTFNTYAMNWVRQAPGKGLEWVARIRSKYNNYATYGADSVKDRFTISRDDSKNTVYLQMNNLKTEDTAVYYCVRHENFGNSYVSWFAHWGQGTLVTVSS VL: ELVVTQEPSLTVSPGGTVTLTCRSSNGAVTSSNYANWVQQKPGQAPRGLIGGTNKRAPGTPARFSGSLLGGKAALTLSGVQPEDEAVYYCALWYPNLWVFGGGTKLTVL
7.2 | AC3419 (bispecific antibody, V domains shown) VH: EVQLLESGGGIVQPGGSLKLSCAASGFTFNTYAMNWVRQAPGKGLEWVARIRSKYNNYATYQADSVKDRFTISRDDSKNTVYLQMNNLKTEDTAVYYCVRHENFGNSYVSWFAHWGQGTLVTVSS VL: ELVVTQEPSLTVSPGGTVTLTCRSSNGAVTSSNYANWVQQKPGQAPRGLIGGTNKRAPGTPARFSGSLLGGKAALTLSGVQPEDEAVYYCALWYPNLWVFGGGTKLTVL
6.1 | AC3410 (bispecific antibody, V domains shown) VH: EVQLLESGGGIVQPGGSLKLSCAASGFTFNTYAMNWVRQAPGKGLEWVARIRSKYNNFATYYADSVKDRFTISRDDSKNTVYLQMNNLKTEDTAVYYCVRHENFGNSYVSWFAHWGQGTLVTVSS VL: ELVVTQEPSLTVSPGGTVTLTCRSSNGAVTSSNYANWVQQKPGQAPRGLIGGTNKRAPGTPARFSGSLLGGKAALTLSGVQPEDEAVYYCALWYPNLWVFGGGTKLTVL
17.9 | AC3416 (bispecific antibody, V domains shown) VH: EVQLLESGGGIVQPGGSLKLSCAASGFTFNTYAMNWVRQAPGKGLEWVARIRSKYNNYATTYADSVKDRFTISRDDSKNTVYLQMNNLKTEDTAVYYCVRHENFGNSYVSWFAHWGQGTLVTVSS VL: ELVVTQEPSLTVSPGGTVTLTCRSSNGAVTSSNYANWVQQKPGQAPRGLIGGTNKRAPGTPARFSGSLLGGKAALTLSGVQPEDEAVYYCALWYPNLWVFGGGTKLTVL
